test system: Escherichia coli TOP10; assay: shrunken log2 fold change of peptide-encoding DNA abundance (4.5 h post-induction vs induction); higher = less antimicrobial activity (less host growth inhibition); conditions: time post-induction: 4.5 h; library: site-saturation at positions 5, 18, 19, 20
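Also: peptides expressed intracellularly from a pBAD plasmid library in pooled LB shake-flask culture, induced with 0.3% L-arabinose, DNA abundance read by NGS, three biological replicates, DESeq2 with apeglm shrinkage.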

Sequence	shrunken log2 fold change
RRIRRRPPRLPRPRPRPWYEPRP	-0.16
RRIRRRPPRLPRPRPRPPSQPRP	0.46
RRIRVRPPRLPRPRPRPCTIPRP	-0.0586
RRIRWRPPRLPRPRPRPSHRPRP	-0.271
RRIRPRPPRLPRPRPRPDEGPRP	-0.188
RRIRYRPPRLPRPRPRPCFAPRP	-0.521
RRIRPRPPRLPRPRPRPYYSPRP	-0.246
RRIRFRPPRLPRPRPRPERPPRP	0.415
RRIRARPPRLPRPRPRPAQVPRP	0.617
RRIRWRPPRLPRPRPRPQYDPRP	-0.212
RRIRSRPPRLPRPRPRPVFHPRP	-0.026
RRIRYRPPRLPRPRPRPVQVPRP	0.0039
RRIRSRPPRLPRPRPRPNFAPRP	0.245
RRIRTRPPRLPRPRPRPWVQPRP	-0.0274
RRIRDRPPRLPRPRPRPQNAPRP	-0.111
RRIRSRPPRLPRPRPRPCKVPRP	-0.265
RRIRYRPPRLPRPRPRPPCSPRP	-0.957
RRIRFRPPRLPRPRPRPPPNPRP	1.33
RRIRIRPPRLPRPRPRPTSTPRP	-0.0986
RRIRDRPPRLPRPRPRPHWCPRP	-0.116
RRIRARPPRLPRPRPRPRNNPRP	-0.101
RRIRMRPPRLPRPRPRPCIKPRP	0.0207
RRIRSRPPRLPRPRPRPAIRPRP	-0.0385
RRIRIRPPRLPRPRPRPPSYPRP	-0.336
RRIRFRPPRLPRPRPRPNVIPRP	-0.173

Sequence	shrunken log2 fold change
RRIRKRPPRLPRPRPRPKMSPRP	-0.315
RRIRGRPPRLPRPRPRPYQTPRP	0.0825
RRIRVRPPRLPRPRPRPNEKPRP	-0.0575
RRIRVRPPRLPRPRPRPYDKPRP	-1.05
RRIRARPPRLPRPRPRPTGYPRP	0.191
RRIRYRPPRLPRPRPRPSLIPRP	-1.15
RRIRYRPPRLPRPRPRPQMIPRP	0.0722
RRIRDRPPRLPRPRPRPKQLPRP	0.217
RRIRQRPPRLPRPRPRPNWKPRP	0.135
RRIRGRPPRLPRPRPRPNQQPRP	0.0317
RRIRMRPPRLPRPRPRPTAQPRP	0.819
RRIRKRPPRLPRPRPRPEAHPRP	0.151
RRIRNRPPRLPRPRPRPENDPRP	0.0164
RRIRHRPPRLPRPRPRPGPRPRP	0.417
RRIRYRPPRLPRPRPRPARTPRP	-0.298
RRIRWRPPRLPRPRPRPTCDPRP	0.388
RRIRTRPPRLPRPRPRPKKRPRP	0.0216
RRIRIRPPRLPRPRPRPSWIPRP	-0.411
RRIRIRPPRLPRPRPRPPTAPRP	0.335
RRIRHRPPRLPRPRPRPFGCPRP	0.0728
RRIRERPPRLPRPRPRPMEAPRP	-0.261
RRIRHRPPRLPRPRPRPSNRPRP	-0.771
RRIRIRPPRLPRPRPRPRMAPRP	0.0331
RRIRTRPPRLPRPRPRPLVHPRP	-0.282
RRIRHRPPRLPRPRPRPTESPRP	0.0139

Sequence	shrunken log2 fold change
RRIRPRPPRLPRPRPRPKYNPRP	-0.633
RRIRTRPPRLPRPRPRPQWHPRP	-0.461
RRIRVRPPRLPRPRPRPMGHPRP	0.0767
RRIRNRPPRLPRPRPRPVWQPRP	0.285
RRIRDRPPRLPRPRPRPKQWPRP	0.109
RRIRSRPPRLPRPRPRPTCQPRP	0.0682
RRIRMRPPRLPRPRPRPATVPRP	0.323
RRIRRRPPRLPRPRPRPVMLPRP	-0.0342
RRIRPRPPRLPRPRPRPISVPRP	-0.171
RRIRCRPPRLPRPRPRPPKGPRP	0.405
RRIRRRPPRLPRPRPRPQWGPRP	0.323
RRIRPRPPRLPRPRPRPTDVPRP	0.35
RRIRLRPPRLPRPRPRPTINPRP	-0.524
RRIRMRPPRLPRPRPRPWSCPRP	-0.0965
RRIRNRPPRLPRPRPRPPWYPRP	-0.224
RRIRWRPPRLPRPRPRPYIVPRP	-0.727
RRIRGRPPRLPRPRPRPWEEPRP	-0.0105
RRIRTRPPRLPRPRPRPDHQPRP	-0.0261
RRIRMRPPRLPRPRPRPVFWPRP	0.884
RRIRPRPPRLPRPRPRPKRSPRP	0.0941
RRIRYRPPRLPRPRPRPVRVPRP	0.0746
RRIRNRPPRLPRPRPRPIPYPRP	-0.0122
RRIRFRPPRLPRPRPRPREGPRP	0.285
RRIRSRPPRLPRPRPRPVYKPRP	-0.166
RRIRIRPPRLPRPRPRPVINPRP	-0.198

Sequence	shrunken log2 fold change
RRIRHRPPRLPRPRPRPPHTPRP	0.249
RRIRGRPPRLPRPRPRPWGAPRP	0.444
RRIRFRPPRLPRPRPRPLKNPRP	-0.193
RRIRLRPPRLPRPRPRPSKGPRP	-0.123
RRIRNRPPRLPRPRPRPVSNPRP	-0.00917
RRIRMRPPRLPRPRPRPELDPRP	2.77
RRIRYRPPRLPRPRPRPGYFPRP	-0.624
RRIRERPPRLPRPRPRPNYTPRP	-0.773
RRIRRRPPRLPRPRPRPPLSPRP	0.996
RRIRHRPPRLPRPRPRPRSLPRP	0.295
RRIRQRPPRLPRPRPRPGQHPRP	-0.0301
RRIRNRPPRLPRPRPRPVVLPRP	-0.179
RRIRGRPPRLPRPRPRPFPYPRP	-0.334
RRIRKRPPRLPRPRPRPYMCPRP	-0.0998
RRIRYRPPRLPRPRPRPHTCPRP	-0.191
RRIRNRPPRLPRPRPRPFNWPRP	-0.123
RRIRNRPPRLPRPRPRPFWVPRP	0.0863
RRIRIRPPRLPRPRPRPWPLPRP	-0.122
RRIRSRPPRLPRPRPRPKYDPRP	-0.0717
RRIRVRPPRLPRPRPRPPYEPRP	-0.0422
RRIRARPPRLPRPRPRPWDGPRP	0.72
RRIRCRPPRLPRPRPRPCLKPRP	-0.277
RRIRLRPPRLPRPRPRPMGHPRP	-0.0276
RRIRKRPPRLPRPRPRPLRQPRP	0.00205
RRIRNRPPRLPRPRPRPGWRPRP	0.564

Sequence	shrunken log2 fold change
RRIRRRPPRLPRPRPRPTCNPRP	0.026
RRIRRRPPRLPRPRPRPVCWPRP	0.586
RRIRKRPPRLPRPRPRPIQRPRP	-0.0846
RRIRMRPPRLPRPRPRPSRTPRP	0.715
RRIRERPPRLPRPRPRPAPTPRP	0.199
RRIRQRPPRLPRPRPRPWITPRP	-0.0754
RRIRCRPPRLPRPRPRPDYLPRP	0.0148
RRIRQRPPRLPRPRPRPIMTPRP	-0.107
RRIRARPPRLPRPRPRPCMSPRP	0.19
RRIRARPPRLPRPRPRPAGCPRP	0.648
RRIRRRPPRLPRPRPRPEHRPRP	0.343
RRIRPRPPRLPRPRPRPCAKPRP	-0.0518
RRIRPRPPRLPRPRPRPTIKPRP	-0.313
RRIRGRPPRLPRPRPRPWLHPRP	0.106
RRIRRRPPRLPRPRPRPFNVPRP	-0.264
RRIRYRPPRLPRPRPRPRGPPRP	0.127
RRIRSRPPRLPRPRPRPQIKPRP	0.0447
RRIRERPPRLPRPRPRPKKAPRP	-0.0599
RRIRPRPPRLPRPRPRPNHWPRP	-0.0328
RRIRHRPPRLPRPRPRPTHWPRP	0.706
RRIRPRPPRLPRPRPRPIAYPRP	-0.0833
RRIRPRPPRLPRPRPRPWDRPRP	0.0969
RRIRYRPPRLPRPRPRPTKWPRP	-0.489
RRIRARPPRLPRPRPRPYMTPRP	-0.256
RRIRMRPPRLPRPRPRPQDEPRP	-0.0393

Sequence	shrunken log2 fold change
RRIRQRPPRLPRPRPRPNDCPRP	0.0531
RRIRHRPPRLPRPRPRPVSYPRP	-0.00133
RRIRKRPPRLPRPRPRPWKPPRP	-0.243
RRIRNRPPRLPRPRPRPKAIPRP	-0.0372
RRIRIRPPRLPRPRPRPPYLPRP	-0.612
RRIRQRPPRLPRPRPRPQTRPRP	-0.0472
RRIRNRPPRLPRPRPRPMCWPRP	0.327
RRIRDRPPRLPRPRPRPEGRPRP	0.517
RRIRGRPPRLPRPRPRPEACPRP	1.11
RRIRNRPPRLPRPRPRPRRYPRP	0.0725
RRIRMRPPRLPRPRPRPVGMPRP	0.366
RRIRRRPPRLPRPRPRPVETPRP	0.181
RRIRCRPPRLPRPRPRPTSQPRP	0.00813
RRIRIRPPRLPRPRPRPSEHPRP	-0.36
RRIRERPPRLPRPRPRPKMLPRP	-0.0332
RRIRPRPPRLPRPRPRPVTFPRP	-0.186
RRIRQRPPRLPRPRPRPVGVPRP	0.475
RRIRIRPPRLPRPRPRPNKWPRP	-0.0869
RRIRARPPRLPRPRPRPWAEPRP	0.264
RRIRGRPPRLPRPRPRPYIKPRP	-0.164
RRIRPRPPRLPRPRPRPHPYPRP	-0.576
RRIRDRPPRLPRPRPRPGHWPRP	0.315
RRIRPRPPRLPRPRPRPYHGPRP	0.0397
RRIRDRPPRLPRPRPRPQWYPRP	-0.45
RRIRWRPPRLPRPRPRPTPNPRP	0.519

Reference: the supplement of paper PMC9112550, “Optimization of the antimicrobial peptide Bac7 by deep mutational scanning” (BMC Biology, 2022)
